Source: publication PMC5666114

Target: Anbu-1 protein from Pseudomonas aeruginosa (Pa-Anbu), wild type (Pseudomonas aeruginosa PAO1)
Assay: SEC-MALS; static light scattering after Superdex S200 10/300 GL; 100 µl protein at 0.5, 1 or 2 mg/ml; 30 mM MOPS/NaOH pH 7.2, 150 mM NaCl; three independent experiments

- stoichiometry N: 12
Substance: Anbu-1 protein from Pseudomonas aeruginosa (Pa-Anbu), wild type (natural protein)
